{
  "source": "paper PMC4048032",
  "target": "VopL C-terminal Domain (VCD), residues 247–484 (Vibrio parahaemolyticus) (UniProt Q87GE5)",
  "assay": "crystal structure",
  "data": [
    {"substance": "VopL C-terminal Domain (VCD), residues 247–484 (from UniProt Q87GE5 247-484) (domain or fragment)", "values": [
      {"measurement": "stoichiometry N", "result": 2}
    ]}
  ]
}
